In article PMC2872118 (Nature, 2009):

Molecular target: the molecule itself
Experiment: native gel or EMSA

B1: PksA SAT-KS-MAT tridomain (domain or fragment)
chain: MAQSRQLFLFGDQTADFVPKLRSLLSVQDSPILAAFLDQSHYVVRAQMLQSMNTVDHKLARTADLRQMVQKYVDGKLTPAFRTALVCLCQLGCFIREYEESGNMYPQPSDSYVLGFCMGSLAAVAVSCSRSLSELLPIAVQTVLIAFRLGLCALEMRDRVDGCSDDRGDPWSTIVWGLDPQQARDQIEVFCRTTNVPQTRRPWISCISKNAITLSGSPSTLRAFCAMPQMAQHRTAPIPICLPAHNGALFTQADITTILDTTPTTPWEQLPGQIPYISHVTGNVVQTSNYRDLIEVALSETLLEQVRLDLVETGLPRLLQSRQVKSVTIVPFLTRMNETMSNILPDSFISTETRTDTGRAIPASGRPGAGKCKLAIVSMSGRFPESPTTESFWDLLYKGLDVCKEVPRRRWDINTHVDPSGKARNKGATKWGCWLDFSGDFDPRFFGISPKEAPQMDPAQRMALMSTYEAMERAGLVPDTTPSTQRDRIGVFHGVTSNDWMETNTAQNIDTYFITGGNRGFIPGRINFCFEFAGPSYTNDTACSSSLAAIHLACNSLWRGDCDTAVAGGTNMIYTPDGHTGLDKGFFLSRTGNCKPYDDKADGYCRAEGVGTVFIKRLEDALADNDPILGVILDAKTNHSAMSESMTRPHVGAQIDNMTAALNTTGLHPNDFSYIEMHGTGTQVGDAVEMESVLSVFAPSETARKADQPLFVGSAKANVGHGEGVSGVTSLIKVLMMMQHDTIPPHCGIKPGSKINRNFPDLGARNVHIAFEPKPWPRTHTPRRVLINNFSAAGGNTALIVEDAPERHWPTEKDPRSSHIVALSAHVGASMKTNLERLHQYLLKNPHTDLAQLSYTTTARRWHYLHRVSVTGASVEEVTRKLEMAIQNGDGVSRPKSKPKILFAFTGQGSQYATMGKQVYDAYPSFREDLEKFDRLAQSHGFPSFLHVCTSPKGDVEEMAPVVVQLAITCLQMALTNLMTSFGIRPDVTVGHSLGEFAALYAAGVLSASDVVYLVGQRAELLQERCQRGTHAMLAVKATPEALSQWIQDHDCEVACINGPEDTVLSGTTKNVAEVQRAMTDNGIKCTLLKLPFAFHSAQVQPILDDFEALAQGATFAKPQLLILSPLLRTEIHEQGVVTPSYVAQHCRHTVDMAQALRSAREKGLIDDKTLVIELGPKPLISGMVKMTLGDKISTLPTLAPNKAIWPSLQKILTSVYTGGWDINWKKYHAPFASSQKVVDLPSYGWDLKDYYIPYQGDWCLHRHQQDCKCAAPGHEIKTADYQVPPESTPHRPSKLDPSKEAFP
With B1 the “stoichiometry N” value was 2.
